# Source: PMC10164138 (Structure (London, England : 1993), 2023)
# B1: CfaB, major pilin subunit of CFA/I pili (natural protein, enterotoxigenic Escherichia coli (ETEC), UniProt P0CK93 24-170, looked up)
# chain: VEKNITVTASVDPAIDLLQADGNALPSAVKLAYSPASKTFESYRVMTQVHTNDATKKVIVKLADTPQLTDVLNSTVQMPISVSWGGQVLSTTAKEFEAAALGYSASGVNGVSSSQELVISAAPKTAGTAPTAGNYSGVVSLVMTLGS
# Target: the molecule itself
# Assay: cryo-EM structure
protein,measurement,value
B1,binding result,binds
